Source: US20030087316A1, “Diagnostic markers of liver dysfunction” (priority 2001, published 2003)
Entries after “also recorded” stand apart in the source; their conditions may differ. Each block holds one molecule with its values, some of them ahead of it.

How the values were obtained:
[1] = test system: proteinase(s) in EDTA plasma from LTR (kallikrein-like peptidase); assay: Peptidase activity in EDTA plasma from liver transplant recipients (LTR), chromogenic substrate, OD 405 nm; assay type: biochemical, human; conditions: for % Residual activity, LTR 1 / % Residual activity, LTR 2 / % Residual activity, LTR 3: substrate AGLTR-pNA; for Inhibition of the LTR plasma peptidase activity, in words: text on Tables 2 and 3, concentrations as there
Description: Blood samples were drawn into 5 ml EDTA tubes (Venoject; Terumo Corp., Elkton, Md.). The plasma was collected immediately by centrifugation at 2,000×g for 15 min at 4° C. The plasma samples were either processed immediately for analysis or stored at −70° C. Frozen samples were thawed at 4° C. prior to analysis.
(§1) The peptidase activity in plasma samples or of the purified enzymes were routinely determined at 37° C. in a 96-well plate. Each well contained 0.5 mM substrate in 100 μl of Tris-buffered saline (TBS)-EDTA buffer (50 mM Tris/150 mM NaCl/10 mM EDTA, pH 7.8) and the reaction was monitored using a microplate reader (Titertek Multiscan, Labsystems, Needham Heights, Mass.).
(§2) The enzymes C1s (100 nM), plasm in (100 nM), thrombin (100 nM), plasma kallikrein (20 nM), β-FXIIa (100 nM), trypsin (16 nM) or LTR EDTA plasma samples were incubated for 60 min at 4° C. with TBS-EDTA buffer containing either LBTI (1 mg/ml), SBTI (I mg/ml), aprotinin (0.075 mg/ml), benzamidine (50 mM), or Futhan (0.1 mg/ml), before mixing with the substrate. EDTA plasma samples from LTR were diluted 10 or 20-fold with TBS-EDTA. The chromogenic substrate AGLTR-pNA was used for all enzymes and LTR samples except C1s where the substrate S2288 was used. Based on the initial rate of increase in OD at 405 nm, the residual free enzyme level was calculated and expressed as a percentage of total activity without inhibitor added.
(§3) Ten-fold diluted normal EDTA plasma was added to each enzyme. The enzymes C1s (100 nM), plasmin (100 nM), thrombin (100 nM), plasma kallikrein (20 nM), β-FXIIa (100 nM), trypsin (16 nM) or LTR EDTA plasma samples were incubated for 60 min at 4° C. with TBS-EDTA buffer containing either C1INH (40 μg/ml), bdellin (50 μg/ml), hirudin (50 U/ml), PPACK 11(10 μM), or CTI (100 μg/ml), before adding the substrate. LTR samples were 10 or 20-fold diluted with TBS-EDTA. The chromogenic substrate AGLTR-pNA was used for all enzymes and LTP samples except C1s where the substrate S2288 was used. Based on the initial rate of increase in OD at 405 nm, the residual free enzyme was calculated and expressed as a percentage of total activity determined without inhibitor added.

[2] = target: T1, thrombin (Homo sapiens, UniProt P00734); assay: Peptidase (amidolytic) activity of purified thrombin, chromogenic substrate, OD 405 nm; assay type: biochemical
T1 construct: purchased Calbiochem-Novabiochem Corp (La Jolla, Calif.)

[3] = target: T2, β-Factor XIIa (β-FXIIa) (Homo sapiens, UniProt P00748); assay: Peptidase (amidolytic) activity of purified β-FXIIa, chromogenic substrate, OD 405 nm; assay type: biochemical; conditions: substrate AGLTR-pNA
T2 construct: β-Factor XIIa (β-FXIIa) was kindly provided by Dr. Mary J. Heeb; gift of Dr. Mary J. Heeb, The Scripps Research Institute
Description: as §1
(§4) […] EDTA plasma samples from LTR were diluted 10 or 20-fold with TBS-EDTA. The chromogenic substrate AGLTR-pNA was used for all enzymes and LTR samples except C1s where the substrate S2288 was used. Based on the initial rate of increase in OD at 405 nm, the residual free enzyme level was calculated and expressed as a percentage of total activity without inhibitor added.
(§5) Ten-fold diluted normal EDTA plasma was added to each enzyme. […] LTR samples were 10 or 20-fold diluted with TBS-EDTA. The chromogenic substrate AGLTR-pNA was used for all enzymes and LTP samples except C1s where the substrate S2288 was used. Based on the initial rate of increase in OD at 405 nm, the residual free enzyme was calculated and expressed as a percentage of total activity determined without inhibitor added.

[4] = target: T3, C1s (Homo sapiens, UniProt P09871); assay: Peptidase (amidolytic) activity of purified C1s, chromogenic substrate, 96-well plate, OD 405 nm; assay type: biochemical; conditions: for % Residual activity, C1s: substrate S2288; for Inhibition of C1s, in words: text on Tables 2 and 3, concentrations as there
T3 construct: purchased Advanced Research Technologies (San Diego, Calif.)
T3 sequence (P09871 438-688 limits assumed): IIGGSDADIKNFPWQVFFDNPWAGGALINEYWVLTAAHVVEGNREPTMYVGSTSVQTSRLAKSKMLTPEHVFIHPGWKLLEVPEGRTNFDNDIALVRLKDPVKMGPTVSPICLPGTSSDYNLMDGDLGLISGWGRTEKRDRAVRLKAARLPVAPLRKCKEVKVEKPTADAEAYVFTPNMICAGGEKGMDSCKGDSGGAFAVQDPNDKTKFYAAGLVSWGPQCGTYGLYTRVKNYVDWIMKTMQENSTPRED
T3 sequence (P09871 16-437 partner limits assumed): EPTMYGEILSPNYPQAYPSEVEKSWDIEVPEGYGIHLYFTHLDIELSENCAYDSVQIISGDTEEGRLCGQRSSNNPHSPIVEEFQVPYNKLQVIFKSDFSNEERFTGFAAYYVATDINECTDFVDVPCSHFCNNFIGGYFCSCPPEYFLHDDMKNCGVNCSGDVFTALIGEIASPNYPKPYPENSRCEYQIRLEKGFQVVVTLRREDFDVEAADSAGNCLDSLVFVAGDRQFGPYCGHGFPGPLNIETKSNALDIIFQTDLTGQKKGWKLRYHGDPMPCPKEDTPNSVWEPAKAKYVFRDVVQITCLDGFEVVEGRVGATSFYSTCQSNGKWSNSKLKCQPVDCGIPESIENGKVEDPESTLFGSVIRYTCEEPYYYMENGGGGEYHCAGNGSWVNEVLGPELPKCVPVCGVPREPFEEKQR
Description: as §1, §2, §3

[5] = target: T4, plasmin (Homo sapiens, UniProt P00747); assay: Peptidase (amidolytic) activity of purified plasmin, chromogenic substrate, OD 405 nm; assay type: biochemical; conditions: for % Residual activity, Plasmin: substrate AGLTR-pNA
T4 construct: purchased Calbiochem-Novabiochem Corp (La Jolla, Calif.)
Description: as §1, §2, §3

[6] = target: T5, plasma kallikrein (Homo sapiens, UniProt P03952); assay: Peptidase (amidolytic) activity of purified plasma kallikrein, chromogenic substrate, OD 405 nm; assay type: biochemical; conditions: for % Residual activity, Plasma Kallikrein: substrate AGLTR-pNA; for Inhibition of purified plasma kallikrein activity, in words: text on Tables 2 and 3, concentrations as there
T5 construct: The light chain of kallikrein contains the enzymatic domain; purchased Calbiochem-Novabiochem Corp (La Jolla, Calif.)
Description: as §1, §4, §5

[7] = test system: trypsin; assay: Peptidase (amidolytic) activity of purified trypsin, chromogenic substrate, OD 405 nm; assay type: biochemical; conditions: Table 2
Description: as §1, §2

[8] = Table 3, LTR 1 EDTA plasma 10 or 20-fold diluted, 60 min at 4° C. with C1INH 40 μg/ml, bdellin 50 μg/ml, hirudin 50 U/ml, PPACK 11 10 μM or CTI 100 μg/ml
[9] = Table 3, LTR 2 EDTA plasma 10 or 20-fold diluted, 60 min at 4° C. with C1INH 40 μg/ml, bdellin 50 μg/ml, hirudin 50 U/ml, PPACK 11 10 μM or CTI 100 μg/ml
[10] = Table 3, LTR 3 EDTA plasma 10 or 20-fold diluted, 60 min at 4° C. with C1INH 40 μg/ml, bdellin 50 μg/ml, hirudin 50 U/ml, PPACK 11 10 μM or CTI 100 μg/ml
[11] = Table 3, thrombin 100 nM with ten-fold diluted normal EDTA plasma added, substrate AGLTR-pNA, 60 min at 4° C. with hirudin 50 U/ml or PPACK 11 10 μM

T5 sequence (P03952 391-638 limits assumed): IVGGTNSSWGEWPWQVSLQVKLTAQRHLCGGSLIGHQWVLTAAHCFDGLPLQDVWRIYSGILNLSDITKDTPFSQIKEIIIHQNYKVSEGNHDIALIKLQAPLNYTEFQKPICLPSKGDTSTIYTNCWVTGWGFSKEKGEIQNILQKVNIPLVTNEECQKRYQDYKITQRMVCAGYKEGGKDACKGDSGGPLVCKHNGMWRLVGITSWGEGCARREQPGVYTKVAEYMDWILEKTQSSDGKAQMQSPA
T5 sequence (P03952 20-390 partner limits assumed): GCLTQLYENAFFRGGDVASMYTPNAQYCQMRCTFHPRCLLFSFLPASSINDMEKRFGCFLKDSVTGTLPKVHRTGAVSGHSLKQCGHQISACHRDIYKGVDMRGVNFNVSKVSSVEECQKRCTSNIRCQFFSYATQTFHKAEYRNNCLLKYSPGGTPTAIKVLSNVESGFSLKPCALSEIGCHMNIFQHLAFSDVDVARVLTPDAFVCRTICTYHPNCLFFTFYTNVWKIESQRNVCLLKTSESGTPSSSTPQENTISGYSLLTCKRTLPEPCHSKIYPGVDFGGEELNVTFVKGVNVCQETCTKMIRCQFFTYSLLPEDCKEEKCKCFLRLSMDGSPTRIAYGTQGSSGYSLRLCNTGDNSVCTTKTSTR
T4 sequence (P00747 581-810 limits assumed, species assumed): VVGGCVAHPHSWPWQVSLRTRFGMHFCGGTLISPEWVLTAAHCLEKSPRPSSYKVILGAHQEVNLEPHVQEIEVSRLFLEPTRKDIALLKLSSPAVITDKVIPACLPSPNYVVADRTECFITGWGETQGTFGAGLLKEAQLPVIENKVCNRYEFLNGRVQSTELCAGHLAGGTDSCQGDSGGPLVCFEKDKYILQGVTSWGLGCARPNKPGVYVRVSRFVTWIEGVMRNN
T4 sequence (P00747 97-580 partner limits assumed, species assumed): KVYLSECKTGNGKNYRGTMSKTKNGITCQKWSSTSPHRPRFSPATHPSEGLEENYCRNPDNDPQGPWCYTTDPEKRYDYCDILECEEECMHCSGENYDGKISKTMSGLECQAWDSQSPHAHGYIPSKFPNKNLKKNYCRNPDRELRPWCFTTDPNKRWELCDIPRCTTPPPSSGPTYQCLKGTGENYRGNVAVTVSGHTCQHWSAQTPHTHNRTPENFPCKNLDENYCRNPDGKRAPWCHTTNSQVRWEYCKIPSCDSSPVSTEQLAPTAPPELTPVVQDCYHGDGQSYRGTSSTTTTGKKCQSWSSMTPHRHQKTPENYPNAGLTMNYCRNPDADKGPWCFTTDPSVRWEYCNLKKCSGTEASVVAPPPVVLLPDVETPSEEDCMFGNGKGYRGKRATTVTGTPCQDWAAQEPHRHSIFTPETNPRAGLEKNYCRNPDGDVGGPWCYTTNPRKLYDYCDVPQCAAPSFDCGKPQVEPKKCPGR
T2 sequence (P00748 373-615 limits assumed, other chains not shown): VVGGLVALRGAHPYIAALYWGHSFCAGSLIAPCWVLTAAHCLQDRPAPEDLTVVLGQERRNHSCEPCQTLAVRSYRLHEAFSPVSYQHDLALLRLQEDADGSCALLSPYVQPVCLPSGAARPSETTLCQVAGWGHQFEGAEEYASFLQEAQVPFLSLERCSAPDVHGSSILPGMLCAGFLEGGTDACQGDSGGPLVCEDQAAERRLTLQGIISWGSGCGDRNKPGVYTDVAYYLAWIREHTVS

Inhibition of thrombin by hirudin (FIG. 8), in words ([2]; 50 U/ml hirudin, substrate AGLTR-pNA, versus time at 37° C.): effectively inhibited
Inhibition of thrombin, in words ([2]; Table 3): a very effective thrombin inhibitor
Molecule: Hirudin
% Residual activity, LTR 1 [1, 8]: 100.4%
% Residual activity, LTR 2 [1, 9]: 99.5%
% Residual activity, LTR 3 [1, 10]: 104.1%
Inhibition of the LTR plasma peptidase activity, in words [1]: failed to reduce the plasma peptidase activity; also recorded: not inhibited
% Residual activity, Thrombin [2, 11]: 2.6%

Molecule: D-Phe-Phe-Arg-chloromethylketone [PPACK II]
% Residual activity, LTR 1 [1, 8]: −0.2%
% Residual activity, LTR 2 [1, 9]: 0.6%
% Residual activity, LTR 3 [1, 10]: 2.7%
Inhibition of the LTR plasma peptidase activity, in words [1]: totally inhibited; also recorded: substantially inhibited
% Residual activity, β-FXIIa ([3]; Table 3, β-FXIIa 100 nM with ten-fold diluted normal EDTA plasma added, 60 min at 4° C. with PPACK 11 10 μM or CTI 100 μg/ml): 8.4%
% Residual activity, C1s ([4]; Table 3, C1s 100 nM with ten-fold diluted normal EDTA plasma added, 60 min at 4° C. with C1INH 40 μg/ml or PPACK 11 10 μM): 82.2%
Inhibition of C1s, in words [4]: failed to inhibit C1s
% Residual activity, Plasmin ([5]; Table 3, plasmin 100 nM with ten-fold diluted normal EDTA plasma added, 60 min at 4° C. with bdellin 50 μg/ml or PPACK 11 10 μM): 9.2%
% Residual activity, Thrombin [2, 11]: 0.7%
% Residual activity, Plasma Kallikrein ([6]; Table 3, plasma kallikrein 20 nM with ten-fold diluted normal EDTA plasma added, 60 min at 4° C. with C1INH 40 μg/ml or PPACK 11 10 μM): 0.0%
Inhibition of purified plasma kallikrein activity, in words [6]: totally inhibited

Inhibition of the LTR plasma peptidase activity, in words [1]: only partially effective
Inhibition of C1s, in words [4]: but not C1s
Inhibition of trypsin amidolytic activity, in words ([7]; concentrations as there): efficiently inhibited
Inhibition of plasmin amidolytic activity, in words ([5]; Table 2, concentrations as there): efficiently inhibited
% Residual activity, Plasma Kallikrein ([6]; Table 2, plasma kallikrein 20 nM, 60 min at 4° C. with LBTI 1 mg/ml, SBTI I mg/ml, aprotinin 0.075 mg/ml, benzamidine 50 mM or Futhan 0.1 mg/ml): 2.2%
Inhibition of purified plasma kallikrein activity, in words [6]: efficiently inhibited
B1: SBTI: soybean trypsin inhibitor, purchased from Sigma Chemical (protein, UniProt P01070 25-205, looked up)
Trypsin inhibitor A: DFVLDNEGNPLENGGTYYILSDITAFGGIRAAPTGNERCPLTVVQSRNELDKGIGTIISSPYRIRFIAEGHPLSLKFDSFAVIMLCVGIPTEWSVVEDLPEGPAVKIGENKDAMDGWFRLERVSDDEFNNYKLVFCPQQAEDDKCGDIGISIDHDDGTRRLVVSKNKPLVVQFQKLDKESL
% Residual activity, LTR 1 ([1]; Table 2, LTR 1 EDTA plasma diluted 10 or 20-fold, 60 min at 4° C. with LBTI 1 mg/ml, SBTI I mg/ml, aprotinin 0.075 mg/ml, benzamidine 50 mM or Futhan 0.1 mg/ml): 44.2%
% Residual activity, LTR 2 ([1]; Table 2, LTR 2 EDTA plasma diluted 10 or 20-fold, 60 min at 4° C. with LBTI 1 mg/ml, SBTI I mg/ml, aprotinin 0.075 mg/ml, benzamidine 50 mM or Futhan 0.1 mg/ml): 61.9%
% Residual activity, LTR 3 ([1]; Table 2, LTR 3 EDTA plasma diluted 10 or 20-fold, 60 min at 4° C. with LBTI 1 mg/ml, SBTI I mg/ml, aprotinin 0.075 mg/ml, benzamidine 50 mM or Futhan 0.1 mg/ml): 28.8%
% Residual activity, β-FXIIa ([3]; Table 2, β-FXIIa 100 nM, 60 min at 4° C. with LBTI 1 mg/ml, SBTI I mg/ml, aprotinin 0.075 mg/ml, benzamidine 50 mM or Futhan 0.1 mg/ml): 109.1%
% Residual activity, C1s ([4]; Table 2, C1s 100 nM, 60 min at 4° C. with LBTI 1 mg/ml, SBTI I mg/ml, aprotinin 0.075 mg/ml, benzamidine 50 mM or Futhan 0.1 mg/ml, % of total activity without inhibitor): 123.6%
% Residual activity, Trypsin ([7]; trypsin 16 nM, substrate AGLTR-pNA, 60 min at 4° C. with LBTI 1 mg/ml, SBTI I mg/ml, aprotinin 0.075 mg/ml, benzamidine 50 mM or Futhan 0.1 mg/ml): 5.3%
% Residual activity, Plasmin ([5]; Table 2, plasmin 100 nM, 60 min at 4° C. with LBTI 1 mg/ml, SBTI I mg/ml, aprotinin 0.075 mg/ml, benzamidine 50 mM or Futhan 0.1 mg/ml): 3.7%
% Residual activity, Thrombin ([2]; Table 2, thrombin 100 nM, substrate AGLTR-pNA, 60 min at 4° C. with LBTI 1 mg/ml, SBTI I mg/ml, aprotinin 0.075 mg/ml, benzamidine 50 mM or Futhan 0.1 mg/ml): 46.7%
